Measurements taken from publication PMC7674511.

Biological target: Pro-LC3B, Q9GZQ8
Test: fluorescence anisotropy
Details: chain shown with the change; FITC-labeled peptide 1 μM; read at the highest Pro-LC3B concentration plotted (about 50 μM); parent: est. 0.071; read off a plot

response: -0.002
Binder: VHDRNANSAVMAGTFNLPSD [BAG6 LIR1 peptide (residues 124-143), P46379-2 Y132A; V135A]
